Values belong to the molecule of their own block, whether it stands above or below them.
Columns and labels:
[1] = molecular target: T1, ammonium transporter AMT1 (Arabidopsis thaliana, UniProt P54144); test: Substrate specificity, Km and Ki determination of the ammonium transporter in yeast strain 26972c; format: cell-based; details: inhibition of methylamine transport by various concentrations of ammonium; read-out: Ki (inhibitor constant)
T1 construct: expressed in transfected cells; host or cells: Saccharomyces cerevisiae 26972c (mutations in MEP1 and MEP2)
T1 sequence (P54144 1-501): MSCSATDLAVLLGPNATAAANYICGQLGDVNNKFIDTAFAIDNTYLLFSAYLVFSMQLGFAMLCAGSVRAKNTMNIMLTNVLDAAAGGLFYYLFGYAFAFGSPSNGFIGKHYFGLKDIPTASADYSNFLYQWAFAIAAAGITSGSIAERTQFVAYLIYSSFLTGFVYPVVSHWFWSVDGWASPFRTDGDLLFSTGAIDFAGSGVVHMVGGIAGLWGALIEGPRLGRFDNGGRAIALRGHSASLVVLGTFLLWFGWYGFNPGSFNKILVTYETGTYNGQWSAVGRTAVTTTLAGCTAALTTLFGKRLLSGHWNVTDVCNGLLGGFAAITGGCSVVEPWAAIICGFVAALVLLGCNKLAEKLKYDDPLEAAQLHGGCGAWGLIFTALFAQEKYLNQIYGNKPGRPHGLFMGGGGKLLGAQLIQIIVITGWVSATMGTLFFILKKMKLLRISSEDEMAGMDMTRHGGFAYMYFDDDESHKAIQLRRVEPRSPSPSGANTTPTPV
Procedure: The investigations of the substrate specificity and the Km determinations are carried out with the yeast strain .music-natural. 26972c (Dubois & Grenson, Mol. Gen. Genet. 175: 67-76, 1979) which expresses the plant ammonium transporter AMT1. The method for this is as in Example 6, except for the fact that the methylamine substrate concentration is varied. […] To determine the affinity of the transport system for ammonium, the inhibition of methylamine transport by various concentration [sic] of ammonium is determined (inhibitor constant, Ki)

[2] = substrate: OC[C@H]1O[C@@](CO)(O[C@H]2O[C@H](CO)[C@@H](O)[C@H](O)[C@H]2O)[C@@H](O)[C@@H]1O; test: Substrate specificity and Km determination of the sucrose transporter in yeast strain SUSY7-pP62; format: cell-based, Solanum tuberosum; details: other: substrate of the sucrose transporter; substrate concentration varied, no inhibitors
Procedure: (§1) The investigations of the substrate specificity and the Km determination are carried out in the yeast strain SUSY7-pP62 (StSUT1) (Riesmeier et al., 1993, Plant Cell 5:1591-1598), which expresses the sucrose transporter from Solanum tuberosum. This entails carrying out the method of Example 3 apart from the fact that the substrate concentration is changed and no potential inhibitors are added. […]

[3] = substrate: OC[C@H]1O[C@H](O[C@H]2[C@H](O)[C@@H](O)[C@H](O)O[C@@H]2CO)[C@H](O)[C@@H](O)[C@@H]1O; test: as above; format: cell-based, Solanum tuberosum; details: other: substrate of the sucrose transporter; substrate concentration varied, no inhibitors
Procedure: as §1

- Ki [1]: < 10 µM
Molecule: N [ammonium]

B1: sucrose transporter P62 (StSUT1) (Solanum tuberosum) (protein)
chain: MENGTKREGLGKLTVSSSLQVEQPLAPSKLWKIIVVASIAAGVQFGWALQLSLLTPYVQLLGIPHKFASFIWLCGPISGMIVQPVVGYYSDNCSSRFGRRRPFIAAGAALVMIAVFLIGFAADLGHASGDTLGKGFKPRAIAVFVVGFWILDVANNMLQGPCRALLADLSGGKSGRMRTANAFFSFFMAVGNILGYAAGSYSHLFKVFPFSKTKACDMYCANLKSCFFIAIFLLLSLTTIALTLVRENELPEKDEQEIDEKLAGAGKSKVPFFGEIFGALKELPRPMWILLLVTCLNWIAWFPFFLYDTDWMAKEVFGGQVGDARLYDLGVRAGAMGLLLQSVVLGFMSLGVEFLGKKIGGAKRLWGILNFVLAICLAMTILVTKMAEKSRQHDPAGTLMGPTPGVKIGALLLFAALGIPLAATFSIPFALASIFSSNRGSGQGLSLGVLNLAIVVPQMLVSLVGGPWDDLFGGGNLPGFVVGAVAAAASAVLALTMLPSPPADAKPAVAMGLSIK
notes: whole-cell [14C]-sucrose uptake; no tag or borders given
- Km [2]: 1 mM
- Km [3]: 10 mM

Reference: patent US5750362A, “Methods for identifying substances with a potential herbicidal or growth-regulating action by means of plant transporter proteins, the use of the transporter proteins, and substances with a herbicidal and growth-regulating action” (BASF Aktiengesellschaft, priority 1993, dated 1998)
